In paper PMC8357825, “Structural basis for Ca^2+ activation of the heteromeric PKD1L3/PKD2L1 channel” (Nature Communications, 2021):

B1: mouse PKD2L1 (residues 64–629) (domain or fragment, UniProt A2A259 64-629, looked up)
chain: TLVSSCCLHICRSIRGLWGTTLTENTAENRELYVKTTLRELVVYIVFLVDICLLTYGMTSSSAYYYTKVMSELFLHTPSDSGVSFQTISSMSDFWDFAQGPLLDSLYWTKWYNNQSLGRGSHSFIYYENLLLGAPRLRQLRVRNDSCVVHEDFREDILNCYDVYSPDKEDQLPFGPQNGTAWTYHSQNELGGSSHWGRLTSYSGGGYYLDLPGSRQASAEALQGLQEGLWLDRGTRVVFIDFSVYNANINLFCILRLVVEFPATGGTIPSWQIRTVKLIRYVNNWDFFIVGCEVVFCVFIFYYVVEEILEIHLHRLRYLSSVWNILDLVVILLSIVAVGFHIFRTLEVNRLMGKLLQQPDTYADFEFLAFWQTQYNNMNAVNLFFAWIKIFKYISFNKTMTQLSSTLARCAKDILGFAIMFFIVFFAYAQLGYLLFGTQVENFSTFVKCIFTQFRIILGDFDYNAIDNANRILGPVYFVTYVFFVFFVLLNMFLAIINDTYSEVKEELAGQKDQLQLSDFLKQSYNKTLLRLRLRKERVSDVQKVLKGGEPEIQFEDFTSTLRELG
notes: PKD2L1, mouse, Uniprot A2A259, residues 64-629 (lacks the C-terminal coiled-coil domain); Three copies of this chain (I, II, III) stand with one PKD1L3-CTD in the heterotetramer; It is not clear whether each chain has both tags or one tag each; also called mPKD2L1 (residues 64–629); TRPP2; source: HEK293F, transiently co-transfected with mPKD1L3, purified (anti-Flag M2 resin, Strep-Tactin resin, …)
B2: mouse PKD1L3-CTD (residues 1632–2151) (domain or fragment, UniProt Q2EG98 1632-2151, looked up)
chain: PIYTAPAMNNLAKPTRKAWKKQLSKLTGGTLVQILFLTLLMTTVYSAKDSSRFFLHRAIWKRFSHRFSEIKTVEDFYPWANGTLLPNLYGDYRGFITDGNSFLLGNVLIRQTRIPNDIFFPGSLHKQMKSPPQHQEDRENYGAGWVPPDTNITKVDSIWHYQNQESLGGYPIQGELATYSGGGYVVRLGRNHSAATRVLQHLEQRRWLDHCTKALFVEFTVFNANVNLLCAVTLILESSGVGTFLTSLQLDSLTSLQSSERGFAWIVSQVVYYLLVCYYAFIQGCRLKRQRLAFFTRKRNLLDTSIVLISFSILGLSMQSLSLLHKKMQQYHCDRDRFISFYEALRVNSAVTHLRGFLLLFATVRVWDLLRHHAQLQVINKTLSKAWDEVLGFILIIVVLLSSYAMTFNLLFGWSISDYQSFFRSIVTVVGLLMGTSKHKEVIALYPILGSLLVLSSIILMGLVIINLFVSAILIAFGKERKACEKEATLTDMLLQKLSSLLGIRLHQNPSEEHADNTGY
notes: PKD1L3, mouse, Uniprot Q2EG98, carboxy-terminal domain (TM6-TM11 = S1-S6; VSD, PMD and PD), residues 1632-2151; it is not clear whether each chain has both tags or one tag each; No tag removal is described; also called mPKD1L3 (residues 1632–2151); TRP-like domain; source: HEK293F, transiently co-transfected with mPKD2L1, purified (anti-Flag M2 resin, Strep-Tactin resin, SEC in GDN)

How the values were obtained:
Assay in all cases: cryo-EM structure; co-expressed and co-purified PKD1L3-CTD/PKD2L1 complex in 20 mM HEPES pH 7.5, 150 mM NaCl, 0.01% GDN, 0.2% Fos-Choline-8 added; without (apo, 3.4 Å) and with 20 mM CaCl2 (Ca2+-loaded, 3.1 Å)
[1] = target: B2; conditions: both partners purified
[2] = target: the molecule itself
[3] = target: B1; conditions: both partners purified

Row | Binder | stoichiometry N [1] [PKD2L1 per PKD1L3] | binding result [2] | binding result [3]
1 | B1 | 3 | binds | –
2 | B2 | – | – | binds
